For orientation: Kd means the free concentration of one partner at which half of the binding sites on the other are occupied at equilibrium, for simple one-to-one binding. The low end stands for tighter binding, the high end for weaker binding. One may read the koff as the rate constant with which the complex falls apart. A high value points to fast dissociation. One may read the kon as the rate constant with which the complex forms. High values mean faster complex formation, low ones slower complex formation.

Experiment [1] deals with T1, PAI-1 (antigen of Example 11, species not stated).
T1 construct: Its method text reads as if hP-1 and mP-1 were the antigens run over captured antibody, that is human and mouse PAI-1
T1 sequence (P05121 24-402): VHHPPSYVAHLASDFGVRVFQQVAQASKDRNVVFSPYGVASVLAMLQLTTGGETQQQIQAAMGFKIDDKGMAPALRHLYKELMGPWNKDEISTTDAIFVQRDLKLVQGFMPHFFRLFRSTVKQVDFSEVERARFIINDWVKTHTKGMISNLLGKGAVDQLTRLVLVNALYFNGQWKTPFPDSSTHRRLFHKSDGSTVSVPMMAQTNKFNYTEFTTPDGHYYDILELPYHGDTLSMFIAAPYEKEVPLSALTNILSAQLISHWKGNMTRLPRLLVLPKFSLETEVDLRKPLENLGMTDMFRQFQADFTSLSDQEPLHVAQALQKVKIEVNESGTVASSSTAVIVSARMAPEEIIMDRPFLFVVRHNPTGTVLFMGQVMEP
The experiment can be described thus: SPR-type biosensor, antibody captured on anti-human IgG surface at 5 densities, 25 C, global 1:1 fit. Here is the method:
This experiment was conducted to measure the binding constants for hP-1 (humanized mAb CT140) and mP-1 (mouse antibody 33B8).
hP-1 was captured onto an anti-human IgG surface (Cat-tag goat mAb) at 5 different surface densities. hP-1 and mP-1 were diluted to a starting concentration of 100 nM and tested in a 3-fold dilution series using PBS with 0.005% Tween-20 and 0.1 mg/ml BSA. Binding data were collected at 25° C. The association phase was monitored for 5 minutes and the dissociation phase was monitored for 2.5 hours. The response data for each antigen over the 5 different density mAb surfaces were globally fit to a simple 1:1 interaction model. A fit to the data was determined (data not shown) a binding constants were determined at 25° C.

For the next experiment, the target named is T2, mouse PAI-1 (mouse, UniProt P22777 23-402, limits assumed, n-terminal biotin label (in the P-ELISA)).
T2 construct: also called murine PAI-1
T2 sequence (looked up): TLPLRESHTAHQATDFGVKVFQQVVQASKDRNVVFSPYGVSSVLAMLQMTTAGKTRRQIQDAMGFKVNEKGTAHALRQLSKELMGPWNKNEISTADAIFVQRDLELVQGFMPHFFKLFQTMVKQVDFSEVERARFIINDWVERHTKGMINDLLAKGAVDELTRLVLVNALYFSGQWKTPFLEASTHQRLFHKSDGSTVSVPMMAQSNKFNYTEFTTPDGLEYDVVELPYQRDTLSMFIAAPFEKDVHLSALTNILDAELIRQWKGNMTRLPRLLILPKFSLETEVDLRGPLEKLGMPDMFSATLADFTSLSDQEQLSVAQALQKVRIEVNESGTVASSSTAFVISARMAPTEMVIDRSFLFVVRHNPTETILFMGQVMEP
Description: P-ELISA. (In general: An ELISA detects its analyte on a solid surface through an enzyme-linked reagent.)

In the next experiment the target is T3, rat PAI-1 (rat, UniProt P20961 24-402, n-terminal biotin label (in the P-ELISA)).
T3 sequence (looked up): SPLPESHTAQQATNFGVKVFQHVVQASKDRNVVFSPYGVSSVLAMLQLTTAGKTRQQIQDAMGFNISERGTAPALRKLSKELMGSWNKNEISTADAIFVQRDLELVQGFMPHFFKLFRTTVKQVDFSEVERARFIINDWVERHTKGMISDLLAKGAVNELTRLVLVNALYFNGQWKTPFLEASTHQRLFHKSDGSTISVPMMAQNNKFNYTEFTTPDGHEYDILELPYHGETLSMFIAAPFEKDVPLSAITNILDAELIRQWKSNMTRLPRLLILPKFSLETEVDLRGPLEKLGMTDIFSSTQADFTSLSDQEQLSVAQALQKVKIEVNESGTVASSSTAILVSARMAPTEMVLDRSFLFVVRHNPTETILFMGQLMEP
Description: P-ELISA: biotin-labeled PAI-1 on streptavidin/Neutravidin coated wells, HRP-conjugated secondary antibody, O.D. 450. Target taken from the title printed in the panel; the legend paragraph 67 names FIG. 12C as mouse. Here is the method:
All reagents are brought to room temperature (18-23° C.) and dilutions are made in Wash Buffer (1×TBS, 0.1% BSA, 0.05% Tween). Briefly, protocol steps are as follows: [0546] Add 100 μL of Neutravidin™ Pierce#31000 (0.5 μg/ml in TBS) to 96-well Immulon-4 plates. Incubate 1 hour at room temperature (RT). [0547] Wash wells 3 times with 200 μl Wash Buffer. [0548] Add 50 μL of biotinylated biomolecule (0.06 nM) Incubate 1 hour at RT. [0549] Wash plate 3 times in Wash Buffer. [0550] Add 100 μL of 1° Ab Incubate 30 min RT [0551] Wash plate 3 times in Wash Buffer. [0552] Add 50 μL of […] (1:10,000) Incubate 30 min RT [0553] Wash plate 4 times in Wash Buffer. [0554] Add 100 μl TMB Reagent (substrate). Incubate at room temperature. [0555] Add 100 μL of 2 M Sulfuric Acid to stop development of the substrate. [0556] Plates were read using a […] filter with a 615-620 nm filter as the reference.
Binding of CT140 to rat, mouse, rabbit and human PAI-1 was determined by P-ELISA (see FIG. 12). The relative affinity of CT140 is human=rabbit>mouse>rat (FIG. 12A, FIG. 12B, FIG. 12C and FIG. 12D, respectively).

B1: CT140 (humanized version of murine monoclonal antibody 33B8, IgG4 with the hinge of IgG1) (antibody, V domains shown)
VH: QVQLVQSGAEVKKPGASVKVSCKASGYTFTNYGMNWVRQAPGQGLEWMGWINTYTGEPTYTDDFKGRFTMTLDTSISTAYMELSRLRSDDTAVYYCAKDVSGFVFDYWGQGTLVTVSS
VL: DIVMTQSPDSLAVSLGERATINCKSSQSLLNIIKQKNCLAWYQQKPGQPPKLLIYWASTRESGVPDRFSGSGSGTDFTLTISSLQAEDVAVYYCQQYYSYPYTFGQGTKLEIKR
notes: also called hP-1; humanized mAb CT140
In the case of B1, in experiment [1], the affinity, expressed as Kd, was 0.015 nM; the koff is 8e-06 s⁻¹; the kon amounted to 530000 M⁻¹ s⁻¹. Also, in the experiment with mouse PAI-1, the “fold greater affinity relative to the parent mouse anti-PAI-1” value is above 10 fold. Besides, the binding result with rat PAI-1 is reported as “binds”.

The values above are taken from patent publication US20090136500A1 (CISTHERA, published 2009).
